Data as given in patent US20130097717A1, “COMPOSITIONS AND METHODS FOR RE-PROGRAMMING CELLS WITHOUT GENETIC MODIFICATION FOR TREATMENT OF CARDIOVASCULAR DISEASES” (VIVOSCRIPT, INC., priority 2010, published 2013).

Columns and labels:
[1] = system: PBMC/mono- (T cells); assay: Reprogramming of T cells to Treg cells, flow cytometry of CD4 and CD25 in PBMC lacking CD14 monocytes; type: cell-based, human; settings: 10, 20 or 50 μg/ml
Method: 100 ml of healthy human blood was collected from a donor and the peripheral blood mononuclear cells (PBMCs) were isolated by density-gradient centrifugation using Histopaque-1077 (Sigma-Aldrich, St Louis, Mo.). CD14+ monocytes were removed by magnetic bead selection (Miltenyi Biotec, Auburn, Calif.). Briefly, […] PBMCs were incubated with 200 μL anti-CD14 microbeads (Miltenyi Biotec) in ice for 30 minutes. The cells were washed with cold 1×PBS with 2% FCS and centrifuged at 300 g for 10 minutes and then resuspended in 1×PBS with 2% FCS. The cell suspension was applied to the magnetic column and unbinding cells were passed through by washing 3 times with 1×PBS with 2% FCS. The PBMC/mono- were harvested by centrifuged at 300 g for 10 minutes.
The PBMC/mono- were cultured in 6-well plates (Becton Dickinson, Gaithersburg, Md.) supplemented with 10% FBS, nonessential amino acids, 2 mM glutamine, 1 mM sodium pyruvate, 25 mM HEPES, 200 units/ml penicillin, and streptomycin at 37° C. and 5% CO2. After 1 hour of culture, His6-Foxp3-11R (10 μg/ml, 20 μg/ml, or 50 μg/ml) was added to the cells. BSA (100 μg/ml) was added to another well as control. Same concentration of His6-Foxp3-11R or BSA was added after cultured for two days. After 5 days of culture, the cells were washed with PBS twice. The cells were re-suspended in 100 μL diluted and added rabbit anti-human CD25 for 90 minutes. […]

[2] = system: PBMC (T cells); assay: Reprogramming of T cells to Treg cells, flow cytometry of CD4 and CD25 in PBMC; type: cell-based, human; settings: 10, 50 or 100 μg/ml
Method: 100 ml of healthy human blood was collected from a donor and the peripheral blood mononuclear cells (PBMCs) were isolated by density-gradient centrifugation using Histopaque-1077 (Sigma-Aldrich, St Louis, Mo.). The PBMC/mono^− were cultured in […] plates (Becton Dickinson, Gaithersburg, Md.) supplemented with 10% FBS, nonessential amino acids, 2 mM glutamine, 1 mM sodium pyruvate, 25 mM HEPES, 200 units/ml penicillin, and streptomycin at 37° C. and 5% CO2. After 1 hour of culture, Foxp3 (10 μg/ml, 50 μg/ml, 100 μg/ml) were added to the cells. BSA (100 μg/ml) was added to another well as control. Same concentration of the Foxp3 or BSA was added after cultured two days. Following 5 days of culture, the cells were washed with PBS twice. The cells were re-suspended in 100 μL diluted and added rabbit anti-human CD25 for 90 minutes. The cells were washed three time with cold 1×PBS supplied 2% FBS and then the conjugated-PE mouse anti-human CD4 as well as conjugated-FITC goat anti-rabbit IgG were added to the cells for 60 minutes in ice. Conjugated-PE mouse IgG and rabbit IgG were incubated with another group cells as Isotype control. The cells were washed with PBS for flow cytometric analysis using a Beckman Coulter FC500 cytometer with Cytomics CXP software (Beckman Coulter, Fullerton, Calif.) (FIGS. 14-17).

[3] = added again after two days, 5 days of culture

B1: His6-Foxp3-11R: His6-tagged Foxp3 fused to 11R, SEQ ID NO: 33 (protein)
chain: MGSSHHHHHHSSGLVPRGSHMPNPRPGKPSAPSLALGPSPGASPSWRAAPKASDLLGARGPGGTFQGRDLRGGAHASSSSLNPMPPSQLQLPTLPLVMVAPSGARLGPLPHLQALLQDRPHFMHQLSTVDAHARTPVLQVHPLESPAMISLTPPTTATGVFSLKARPGLPPGINVASLEWVSREPALLCTFPNPSAPRKDSTLSAVPQSSYPLLANGVCKWPGCEKVFEEPEDFLKHCQADHLLDEKGRAQCLLQREMVQSLEQQLVLEKEKLSAMQAHLAGKMALTKASSVASSDKGSCCIVAAGSQGPVVPAWSGPREAPDSLFAVRRHLWGSHGNSTFPEFLHNMDYFKFHNMRPPFTYATLIRWAILEAPEKQRTLNEIYHWFTRMFAFFRNHPATWKNAIRHNLSLHKCFVRVESEKGAVWTVDELEFRKKRSQRPSRCSNPTPGPESGGGGSPGRRRRRRRRRRR
modifications: transducible material
In the case of B1, the “dose dependence of the increase of CD4+CD25+T cells” value [1] is reported as “protein-dose dependent”, the “CD4+CD25+T cells (Treg cells)” value [1, 3] is reported as “dramatically increased” and the “dose dependence of the increase of CD4+CD25+T cells” value [2] is reported as “protein-dose dependent”. For the same molecule, the “CD4+CD25+T cells (Treg cells)” value [2, 3] was “dramatically increased”.
